In US20240009285A1 (REGENERATIVE RESEARCH FOUNDATION, published 2024):
Substitutions are numbered along the chain they refer to. Names and notes keep the numbering of the source.

B1: scFv-V-hPEST-D433A (scFv, V domains shown)
VH: QVQLVESGGGLVKPGGSLRLSCAASGFTFSSYAMSWVRQAPGKGLEWVAAISGSGDNTYYADSVKGRFTISRDNSENTVHLQMAGLRAEDTALYFCAKDGPEVGNPGGYFDFWGRGTLVTVSS
B2: scFv-N-hPEST-S445A (scFv, V domains shown)
VH: B1 VH with E102A
B3: scFv-N-hPEST-D433A (scFv, V domains shown)
VH: B1 VH with E102A
B4: VHH-4C-N77D (VHH)
VHH: VQLVESGGGGLVQPGGSLRLSCVTPGGIFSDYAMGWYRQAPGKQRELVADITVSDTTRYSDPVKGRFTISRDNAKDMVYLQMNSLKPEDAAIYTCNAQKWEDRYGSSERYDYWGQGTQVTVSS
notes: Unfused nanobody as named in the SPR statement; also called VHH-N77D

Legend:
GFP-Tau-(0N4R) = GFP-Tau-(0N4R) (human, UniProt P10636-6 1-383); test: cell-based or functional assay
Chain of GFP-Tau-(0N4R) (P10636 other isoform, or with tags, fused parts or gaps): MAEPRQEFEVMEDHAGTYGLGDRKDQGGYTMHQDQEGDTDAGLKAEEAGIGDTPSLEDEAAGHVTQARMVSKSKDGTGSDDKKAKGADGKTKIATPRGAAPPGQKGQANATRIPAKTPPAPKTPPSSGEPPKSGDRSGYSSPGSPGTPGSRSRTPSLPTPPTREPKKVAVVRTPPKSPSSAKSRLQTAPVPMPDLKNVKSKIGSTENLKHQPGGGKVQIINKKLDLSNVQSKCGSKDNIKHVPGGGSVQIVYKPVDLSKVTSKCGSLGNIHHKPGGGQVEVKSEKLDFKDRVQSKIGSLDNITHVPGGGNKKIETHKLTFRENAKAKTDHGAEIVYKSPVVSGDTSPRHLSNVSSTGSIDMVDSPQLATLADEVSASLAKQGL

[1] = target: human α-synuclein protein (human, UniProt P37840 1-140); test: surface plasmon resonance (SPR); no numbers given

Row | Binder | reduction of total tau vs EV-CON (western blot) (GFP-Tau-(0N4R)) | binding result [1]
1 | B1 | ~40% | 
2 | B2 | ~40% | 
3 | B3 | ~40% | 
4 | B4 |  | binds
